According to article PMC5669500, “Scaffolding the cup-shaped double membrane in autophagy” (PLoS Computational Biology, 2017):
Positions count from the first letter of the chain named.

Assays:
Assay in all cases: pull-down; 20 μg GST-Atg13 (351–458) immobilised on 30 μL Glutathione Sepharose 4B; Atg17-Atg31-Atg29 complex at 10 μM; 4°C, 1 hour; 20 mM Tris pH 8, 150 mM NaCl, 0.1 mM TCEP; 3 washes; SDS-PAGE
Details in all cases: both partners purified
[1] = target: T1, Atg17-Atg31-Atg29 complex with Atg17 mutant M3 (K8D/R14D/K249D) (Saccharomyces cerevisiae, UniProt Q06410 1-417; Q12421 1-196; Q12092 1-213, K8D | R14D | K249D)
T1 construct: Atg17, Saccharomyces cerevisiae; Atg31, Saccharomyces cerevisiae; Atg29, Saccharomyces cerevisiae; a TEV cleavage site follows the His6 tag; Mutations introduced into the Atg17-Atg31-Atg29 construct by quick-change mutagenesis; source: E. coli BL21 (DE3), co-expressed from pST39, purified (Ni-NTA, Superose 6); copies: 2 + +
T1 sequence (looked up) 1: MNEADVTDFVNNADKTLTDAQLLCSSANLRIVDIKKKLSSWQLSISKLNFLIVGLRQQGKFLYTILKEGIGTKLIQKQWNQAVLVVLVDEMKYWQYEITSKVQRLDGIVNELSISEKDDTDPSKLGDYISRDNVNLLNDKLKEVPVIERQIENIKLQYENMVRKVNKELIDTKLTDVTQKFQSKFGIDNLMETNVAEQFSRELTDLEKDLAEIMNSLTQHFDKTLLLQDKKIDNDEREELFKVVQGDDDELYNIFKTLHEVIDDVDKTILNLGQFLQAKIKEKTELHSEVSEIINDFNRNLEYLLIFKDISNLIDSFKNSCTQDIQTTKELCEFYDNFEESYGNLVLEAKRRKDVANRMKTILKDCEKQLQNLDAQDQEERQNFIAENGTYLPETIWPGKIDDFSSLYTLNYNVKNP
T1 sequence (looked up) 2: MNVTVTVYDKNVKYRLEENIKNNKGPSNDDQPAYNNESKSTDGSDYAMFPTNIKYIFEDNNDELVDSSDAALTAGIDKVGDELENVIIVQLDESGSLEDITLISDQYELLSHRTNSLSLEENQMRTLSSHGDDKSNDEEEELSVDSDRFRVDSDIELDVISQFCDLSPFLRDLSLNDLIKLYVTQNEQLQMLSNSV
T1 sequence (looked up) 3: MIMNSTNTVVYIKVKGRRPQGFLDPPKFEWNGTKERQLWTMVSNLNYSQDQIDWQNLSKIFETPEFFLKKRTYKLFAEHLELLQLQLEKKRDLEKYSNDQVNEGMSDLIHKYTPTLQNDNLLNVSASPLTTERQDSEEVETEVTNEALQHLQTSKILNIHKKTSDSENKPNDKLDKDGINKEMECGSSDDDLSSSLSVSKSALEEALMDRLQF

[2] = target: T2, Atg17-Atg31-Atg29 complex with Atg17 mutant M4 (K164D/K173D/R299D) (Saccharomyces cerevisiae, UniProt Q06410 1-417; Q12421 1-196; Q12092 1-213, K164D | K173D | R299D)
T2 construct: Atg17, Saccharomyces cerevisiae; Atg31, Saccharomyces cerevisiae; Atg29, Saccharomyces cerevisiae; a TEV cleavage site follows the His6 tag; Mutations introduced into the Atg17-Atg31-Atg29 construct by quick-change mutagenesis; source: E. coli BL21 (DE3), co-expressed from pST39, purified (Ni-NTA, Superose 6); copies: 2 + +
T2 sequence (looked up) 1: T1 sequence (looked up) 1 with D8K, D14R, K164D, K173D, D249K, R299D
T2 sequence (looked up) 2: T1 sequence (looked up) 2
T2 sequence (looked up) 3: T1 sequence (looked up) 3

[3] = target: T3, Atg17-Atg31-Atg29 complex with Atg17 mutant M5 (K92D/L141D) (Saccharomyces cerevisiae, UniProt Q06410 1-417; Q12421 1-196; Q12092 1-213, K92D | L141D)
T3 construct: Atg17, Saccharomyces cerevisiae; Atg31, Saccharomyces cerevisiae; Atg29, Saccharomyces cerevisiae; a TEV cleavage site follows the His6 tag; Mutations introduced into the Atg17-Atg31-Atg29 construct by quick-change mutagenesis; source: E. coli BL21 (DE3), co-expressed from pST39, purified (Ni-NTA, Superose 6); copies: 2 + +
T3 sequence (looked up) 1: T1 sequence (looked up) 1 with D8K, D14R, K92D, L141D, D249K
T3 sequence (looked up) 2: T1 sequence (looked up) 2
T3 sequence (looked up) 3: T1 sequence (looked up) 3

- binding result [1]: binds
- binding result [2]: binds
- binding result [3]: binds
B1: GST-Atg13 (351–458) (domain or fragment, Saccharomyces cerevisiae, UniProt Q06628 351-458, looked up)
chain: TRANSFEPQSWQKKVYPISRPVQPFKVGSIGSQSASRNPSNSSFFNQPPVHRPSMSSNYGPQMNIEGTSVGSTSKYSSSFGNIRRHSSVKTTENAEKVSKAVKSPLQP
notes: a TEV cleavage site follows the GST tag; source: recombinant from pGST2 vector, purified (Glutathione Sepharose 4B, HiLoad Superdex 200 16/60); not shown: GST, N-terminal, kept
